Measurements taken from patent US20110293610A1 (published 2011).
Changes are numbered by the printed parent chain. Each block holds one binder with its values, some of them ahead of it.

Key:
[1] = target: T1, B Lymphocyte Stimulator, soluble form (human) (human, UniProt Q9Y275 134-285, biotinylated with NHS-biotin where used as biotinylated B Lymphocyte Stimulator); test: phage competition ELISA on P388 plasma membranes
T1 construct: Coated on plastic, captured on streptavidin plates, amine-coupled to a CM5 chip or free in solution, depending on the assay; also called BLyS; immobilized B Lymphocyte Stimulator
Procedure: P388 plasma membranes (50 μl per well) were coated at 10 μg/ml in PBS onto Falcon 96-well plates overnight at 4° C. The method is otherwise essentially as described Example 16.

[2] = target: T2, membrane-bound B Lymphocyte Stimulator on U937 plasma membrane preparations (human, UniProt Q9Y275 1-285); test: phage ELISA
T2 construct: Natural protein in plasma membrane fractions of the human cell line U937 coated on ELISA plates; also called U937 plasma membranes; U937 membranes

[3] = target: T1, B Lymphocyte Stimulator, soluble form …; test: phage competition ELISA on U937 plasma membranes
Procedure: (§1) For each test phage antibody, 3 aliquots of 20 μl 18% marvel/6×PBS were transferred into separate wells of a 96-well plate. The first aliquot was supplemented with His-tagged B Lymphocyte Stimulator to a final concentration of 60 μg/ml. The second aliquot was supplemented with soluble B Lymphocyte Stimulator to a final concentration of 60 μg/ml. The third aliquot was not supplemented with any competing antigen. One hundred μl of phage supernatant was then added to each aliquot and left to block at room temperature for 1 hour.
(§2) The antigen-coated plates were washed once with PBS before the addition of 200 μl/well 3% marvel/PBS. These plates were left to block at 37° C. for 1 hour and were then washed once with PBS. Duplicate samples of 50 μl pre-blocked phage (above) were added to the antigen-coated plates and left at room temperature for 1 hour. Plates were washed 3× with PBS/0.1% Tween 20, then 3× with PBS. Fifty μl/well mouse anti-M13 HRP (Pharmacia) at 1/5000 in 3% Marvel/PBS was added and left for 1 hour at room temperature. Plates were washed 3 times with PBS/0.1% Tween 20, then 3 times with PBS. Fifty […] HRP-labelled anti-mouse Envision polymer (DAKO) at 1/50 in 3% marvel/PBS was added and left for 1 hour at RT. Plates were washed 3 times with PBS/0.1% Tween 20, then 3 times with PBS. Next, 50 μl/well of TMB (Sigma) was added and plates left to develop for 30 to 60 minutes. When sufficient color has developed, 25 μl/well 0.5M H₂SO₄ was added to stop the reaction. The plates were read at 450 nm on a microtiter plate reader (Bio-Rad 3550).

[4] = target: T3, HIS-tagged B Lymphocyte Stimulator (human, UniProt Q9Y275 71-285); test: phage competition ELISA on U937 plasma membranes
T3 construct: Expressed in E. coli from pQE9 and purified; also called histidine-tagged B Lymphocyte Stimulator; HIS-B Lymphocyte Stimulator; not shown: histidine tag of the pQE9 vector
Procedure: as §1, §2

[5] = target: T1, B Lymphocyte Stimulator, soluble form …; test: phage ELISA
[6] = target: T3, HIS-tagged B Lymphocyte Stimulator; test: phage ELISA
[7] = target: T3, HIS-tagged B Lymphocyte Stimulator; test: BIAcore, purified scFv over low density (500 RU) HIS-BLyS surface
Procedure: The chip containing the low density HIS-B Lymphocyte Stimulator surface was inserted into the BIAcore. […] The dilution series was then injected sequentially over the blank control (flow cell 1) and low density HIS-B Lymphocyte Stimulator surface (flow cell 2) using the following program: […]

[8] = target: T4, TNF-beta (human, UniProt P01374 35-205); test: phage ELISA
T4 construct: also called TNFβ; Tumour Necrosis Factor-beta
T4 sequence (looked up): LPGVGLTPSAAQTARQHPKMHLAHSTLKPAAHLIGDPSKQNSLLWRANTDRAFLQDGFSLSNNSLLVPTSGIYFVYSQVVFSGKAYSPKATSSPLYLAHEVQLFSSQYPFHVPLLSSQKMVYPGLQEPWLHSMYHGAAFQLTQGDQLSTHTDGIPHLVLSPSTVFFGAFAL

[9] = target: LIGHT (human, UniProt O43557 74-240, limits assumed); test: phage ELISA
Chain of LIGHT (O43557 74-240 limits assumed): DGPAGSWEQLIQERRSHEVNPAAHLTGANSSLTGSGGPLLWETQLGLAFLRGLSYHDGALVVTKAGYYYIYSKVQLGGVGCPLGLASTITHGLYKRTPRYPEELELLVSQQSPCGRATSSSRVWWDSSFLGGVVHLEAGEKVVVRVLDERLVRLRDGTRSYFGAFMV

[10] = target: T5, Bovine serum albumin (bovine, UniProt P02769 25-607); test: phage ELISA
T5 construct: also called BSA
T5 sequence (P02769 25-607 limits assumed): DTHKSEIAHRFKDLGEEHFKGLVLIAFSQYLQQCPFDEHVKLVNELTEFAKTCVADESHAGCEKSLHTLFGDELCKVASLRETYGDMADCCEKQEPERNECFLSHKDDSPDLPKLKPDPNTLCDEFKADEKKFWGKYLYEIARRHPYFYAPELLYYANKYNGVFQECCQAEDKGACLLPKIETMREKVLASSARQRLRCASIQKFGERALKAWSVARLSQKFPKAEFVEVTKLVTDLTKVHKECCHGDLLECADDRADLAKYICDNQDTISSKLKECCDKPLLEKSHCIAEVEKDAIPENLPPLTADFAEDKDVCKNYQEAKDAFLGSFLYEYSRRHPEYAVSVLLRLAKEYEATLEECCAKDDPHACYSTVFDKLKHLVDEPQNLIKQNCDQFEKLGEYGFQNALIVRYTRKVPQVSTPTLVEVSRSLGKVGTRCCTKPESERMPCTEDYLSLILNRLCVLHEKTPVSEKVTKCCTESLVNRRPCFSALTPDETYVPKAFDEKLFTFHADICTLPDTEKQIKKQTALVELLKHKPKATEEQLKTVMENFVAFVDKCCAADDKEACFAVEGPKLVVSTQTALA

[11] = target: T6, TNF-alpha (human, UniProt P01375 77-233); test: phage ELISA
T6 construct: also called TNFα; TNF-α
T6 sequence (P01375 77-233 limits assumed): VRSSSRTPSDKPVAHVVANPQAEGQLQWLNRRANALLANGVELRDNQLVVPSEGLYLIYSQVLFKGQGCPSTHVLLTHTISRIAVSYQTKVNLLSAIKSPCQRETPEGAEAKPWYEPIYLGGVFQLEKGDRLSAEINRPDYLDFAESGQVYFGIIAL

[12] = target: T7, TRAIL (human, UniProt P50591 114-281); test: phage ELISA
T7 construct: also called TNF-related apoptosis inducing ligand
T7 sequence (P50591 114-281 limits assumed): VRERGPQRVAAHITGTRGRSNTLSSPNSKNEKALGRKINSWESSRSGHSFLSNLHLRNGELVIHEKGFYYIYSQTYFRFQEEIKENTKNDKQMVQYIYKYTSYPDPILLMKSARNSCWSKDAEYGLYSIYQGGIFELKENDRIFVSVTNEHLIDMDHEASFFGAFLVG

[13] = target: T1, B Lymphocyte Stimulator, soluble form …; test: phage ELISA, biotinylated BLyS on streptavidin plates
[14] = target: T1, B Lymphocyte Stimulator, soluble form …; test: BIAcore 2000, purified scFv over low density (500 RU) BLyS surface
[15] = target: T1, B Lymphocyte Stimulator, soluble form …; test: cell-based or functional assay
[16] = target: T1, B Lymphocyte Stimulator, soluble form …; test: BIAcore, IgG1 captured on low-density Protein A surface, BLyS passed over
Procedure: Briefly, antibodies were captured on low-density Protein A surfaces and B Lymphocyte Stimulator was passed over at various flow rates. The binding of B Lymphocyte Stimulator to immobilized antibody was detected by changes in […] that were proportional to the amount of bound B Lymphocyte Stimulator. Binding values were calculated using software provided by the manufacturer.

binding result [1]: no binding
B1: I082H08 (scFv)
scFv: EVQLVESGGGLVQPGGSLRLSCAASGFTFSDYGMHWVRQRPGKGLEWIAFIGSDGSNKYYGDTVKGRFTISRDNAKNSLYLQMNSLRAEGTAVYYCARDWDMDVWGQGTMVTVSSGGGGSGGGGSGGGGSSHVILTQPRSVSGSPGQSVTISCTGTSSDVGGYHYVSWYQQHPGKAPRLMIYEVTKRPSGVSNRFSGSKSGNTASLTISGVQAEDEADYYCSSYTSASTVIFGGGTKLTVLG

binding result [1]: no binding
B4: I079E02 (scFv)
scFv: QVQLVQSGAEVKKPGSSVKVSCKASGGTFSSYAISWVRQAPGQGLEWMGGIIPIFGTANYAQKFQGRVTITADKSTSTAYMELSSLRSDDTAVYYCARDSGSYYYDAFDIWGKGTMVTVSSGGGGSGGGGSGGGGSDIVMTQSPSTLSASVGDRVTITCRASQGISSWLAWYQQKPGKAPKLLIYAASSLQSGVPSRFSGSGSGTDFTLTISSLQPEDFATYYCQQANSFPLTFGGGTKVEIKR

binding result [1]: no binding
B6: I099D03 (scFv)
scFv: QVQLVQSGAEVKKPGASVRVSCKSSGYTFTNYGISWVRQAPGQGLEWMGWISNNNGKTYYAQKVQGRVTMTTDTSTSTDYMELRGLRSDDTAIYYCARDNGGGTIGFDYWGRGTLVTVSSGGGGSGGGGSGGGGSAQAVLTQPSSVSGAPGQRVTMSCTGSSSNIGAGYDVHWYQQLPGTAPKLLIYDNTNRPSGVPDRFSGSRSGTSASLAITGLQAEDEADYFCQSYDITLSAVFGTGTKVTVLG

binding result [8]: no binding
binding result [9]: no binding
binding result [10]: no binding
binding result [11]: no binding
binding result [12]: no binding
binding result [13]: binds
B7: I075F12 (scFv)
scFv: QVQLVQSGAEVKKPGSSVKVSCKASGGTVSSRTISWVRQAPGQGLEWMGGSLPPSGAPIYAQKFQGRVAITADALTNTAFMELRSLKSDDTAVYYCARDQGRYLDLWGQGTMVTVSSGGGGSGGGGSGGGGSAQAVLTQPSSASGTPGQRATISCSGSSSDIGINAVNWYKQLPRTAPKLLIYRNNQRPSGVPDRFSGSKSGTSASLAIIGLQSEDEADYYCATWDDSLTAYVFGTGTKVTVLG

binding result [2]: binds
binding result [5]: no binding
binding result [6]: binds
B11: I079C01 (scFv)
scFv: EVQLVESGGGLVQPGGSLRLSCAASGFTFSDYGMHWVRQRPGKGLEWIAFIGSDGSNKYYGDTVKGRFTISRDNAKNSLYLQMNSLRAEGTAVYYCARDWDMDVWGQGTMVTVSSGGGGSGGGGSGGGGSHVILTQPRSVSGSPGQSVTISCTGTSSDVGGYHYVSWYQQHPGKAPRLMIYEVTKRPSGVSNRFSGSKSGNTASLTISGVQAEDEADYYCSSYTSASTVIFGGGTKLTVLG

Further lines, the binder ahead of its results:

B2: I080B01 (scFv)
scFv: QVQLVQSGAEVKKPGASVKVSCKASGYTFTNYYMHWVRQAPGQGLEWMGIINPRDVSTTYAQKFQGRATMTRDTSTSTVYMELNSLRSEDTAVYYCAREYSGYHYVEGGSYAMDVWGQGTMVTVSSGGGGSGGGGSGGGGSALSYVLTQPPSASGTPGQRVTITCSGSSSNIGNYYVNWYQQVSGTAPKLIIYRNNQRPSGVPDRFSGSKSGASASLAISGLRSEDEADYFCAAWDDSLREFVFGTGTKVTVLG
binding result [2]: binds
binding result [3]: no binding (tested: 60 µg/ml competing antigen)
binding result [4]: binds

B3: I082A02 (scFv)
scFv: QVQLVQSGAEVKEPGASVKISCEASGYTFTNNFIDWVRQAPGQGLEWMGTISGSTGNTYYKQGFQGRVTMTRDTATSTAYLEVRGLTSEDTAIYFCARPAASSRGPKDAFDIWGQGTLVTVSSGGGGSGGGGSGGGGSQSVLTQPPSVSAAPGQKVTISCSGSTSNIGNNYVSWYQQHPGKAPKLMIYDVSKRPSGVPDRFSGSKSGNSASLDISGLQSEDEADYYCAAWDDSLSEFLFGTGTKLTVLG
binding result [2]: binds
binding result [5]: no binding
binding result [6]: binds

B5: I082C03 (scFv)
scFv: QVQLVQSGSEVKKPGASVKVSCKTSGYSFTGYFIHWVRQAPGQGLEWMGWINPNSGGTNLAQKFQGRVTMTRDTSISTAYMELSSLKSDDTAVYYCARDASRDIVVLPLAIWGKGTLVTVSSGGGGSGGGGSGGGGSDIQMTQSPSTLSASIGDRVTITCRASEGIYHWLAWYQQKPGKAPKLLIYKASSLASGAPSRFSGSGSGTDFTLTISSLQPDDFATYYCQQYSNYPLTFGGGTKLEIKR
Kd [7]: 20 nM
koff [7]: 0.002 s⁻¹

B8: I003C02 (scFv)
scFv: EVQLVQSGAEVKKPGSSVKVSCQASGGNFNSYGVSWVRQAPGQGLEWMGRIIPNVGTANYAQKFQGRVTITADKLTSTVYLEVRSLRSEDTAVYYCARGDYDILTGYPAECFQIWGQGTMVTVSSGGGGSGGGGSGGGGSAQAVLTQPSSASGTPGQRVTISCSGSTSNIGTNTVNWYQQLPGTAPKLLIYSNHLRPSGVPDRFSGSKSGTSASLAISGLQSEDEADYYCSARDDSLNGVVFGGGTKVTVLG
koff [14]: 0.006 s⁻¹

B9: I006D08 (whole IgG1) (antibody, V domains shown)
VH: QVQLQQSGAEVKKPGSSVRVSCKASGGTFNNNAINWVRQAPGQGLEWMGGIIPMFGTAKYSQNFQGRVAITADESTSTASMELSSLRSEDTAVYYCARSRDLLLFPHYGMDVWGRGTMVTVSS
VL: SSELTQDPAVSVALGQTVRVTCQGDSLRSYYASWYQQKPGQAPVLVIYGKNNRPSGIPDRFSGSSSGNTASLTITGAQAEDEADYYCNSRDSSGNHWVFGGGTELTVLG
notes: constant regions (human IgG1)
IC50 for the inhibition of human B Lymphocyte Stimulator induced-proliferation of murine B cells (3H-thymidine incorporation) [15]: 0.09 nM
fold higher Kd than I116A01 [16]: ~2 fold
fold higher off rate (kd) than I116A01 [16]: 2 fold

B10: I116A01 (whole IgG1) (antibody, V domains shown)
VH: B9 VH with S77G, Y108H, G109A, M110L, D111S, V112P
VL: B9 VL with N88S
IC50 for the inhibition of human B Lymphocyte Stimulator induced-proliferation of murine B cells (3H-thymidine incorporation) [15]: 0.06 nM
